Reference: patent US20110287023A1 (AstraZeneca / MedImmune, published 2011)

T1: activated HMG1 from LPS stimulated THP-1 cells (human, UniProt P09429 1-215)
T1 sequence (looked up): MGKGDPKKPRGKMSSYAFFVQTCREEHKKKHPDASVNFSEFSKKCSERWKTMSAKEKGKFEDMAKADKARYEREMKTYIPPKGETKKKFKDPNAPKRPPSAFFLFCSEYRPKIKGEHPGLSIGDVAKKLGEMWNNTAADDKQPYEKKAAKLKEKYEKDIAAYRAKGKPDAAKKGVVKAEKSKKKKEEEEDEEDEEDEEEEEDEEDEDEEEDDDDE

T2: HMG2 coated on ELISA plates (Bos taurus (Bovine), UniProt P40673 2-209)
T2 construct: also called HMGB2; HMBG2
T2 sequence: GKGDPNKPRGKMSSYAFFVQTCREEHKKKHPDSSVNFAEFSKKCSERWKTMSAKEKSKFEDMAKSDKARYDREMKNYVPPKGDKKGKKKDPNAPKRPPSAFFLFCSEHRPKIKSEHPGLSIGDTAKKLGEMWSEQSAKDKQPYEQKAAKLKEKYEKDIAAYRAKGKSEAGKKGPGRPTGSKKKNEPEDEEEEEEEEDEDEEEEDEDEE

T3: released HMG1 from conditioned medium of necrotic 293H cells (human, UniProt P09429 1-215)
T3 construct: also called necrotic HMG1
T3 sequence (looked up): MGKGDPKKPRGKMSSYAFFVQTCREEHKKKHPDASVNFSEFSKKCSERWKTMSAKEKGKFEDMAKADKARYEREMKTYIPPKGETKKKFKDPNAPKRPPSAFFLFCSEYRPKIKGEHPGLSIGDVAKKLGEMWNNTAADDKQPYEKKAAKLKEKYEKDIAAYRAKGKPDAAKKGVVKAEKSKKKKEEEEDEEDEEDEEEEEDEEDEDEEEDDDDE

T4: native nuclear HMG1 from freeze-thawed 293H cells (human, UniProt P09429 1-215)
T4 construct: unpurified cell supernatant
T4 sequence (looked up): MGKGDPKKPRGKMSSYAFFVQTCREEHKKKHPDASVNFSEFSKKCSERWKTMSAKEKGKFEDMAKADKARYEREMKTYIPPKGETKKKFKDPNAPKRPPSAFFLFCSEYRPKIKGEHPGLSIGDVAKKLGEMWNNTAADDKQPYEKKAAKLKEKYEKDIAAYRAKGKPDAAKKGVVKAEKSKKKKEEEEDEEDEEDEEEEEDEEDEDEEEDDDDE


What was measured:
[1] = target: T5, recombinant HMG1 produced in E. coli as a calmodulin binding protein (CBP) fusion (human); assay: ELISA, coated RAGE-Fc, rHMG1 preincubated with antibody
T5 construct: also called rHMG1; rHMGB1
Protocol: HMG1 binding to RAGE-Ig by ELISA: 50 μl/well of RAGE-Fc fusion protein at 5 μg/ml in PBS was added to each well of an ELISA plate and incubated overnight at 4° C. The plate was then blocked with 200 μl of 5% milk at 37° C. for 1 hr and washed 3× with PBS/Tween. 50 μl/well of diluted HMGB1 solution. For dose curves, HMGB1 concentrations started at 4 ug/ml in PBS. For antibody blocking the HMGB1 was preincubated in another plate with human anti-HMG1 antibodies or buffer, then transferred to the RAGE-coated plate. The plates were then incubated at room temperature for 2 hours and washed 3×. To detect any HMG1 bound to the immobilized RAGE-Fc a mixture of biotinylated mouse anti-HMG1 mAbs (10D4, 4H11, 3E10 and 5C12) each at 1 ug/ml, total Ab: 4 ug/ml, were added to each well and the plate was incubated for 1 hour at room temperature. The plate was then washed and Strepavidin-HPR was added to each well and incubated 15 min. The plate was then washed 3× and blotted dry. 100 μl of TMB developing agent was added and the plate read at 650 nm. Values were calculated as percent of inhibition with HMG1 alone equal to 0% inhibition. The data in FIG. 9 and summarized in Table 1 represent the average of two separate experiments.

[2] = target: T1, activated HMG1 from LPS stimulated …; assay: cell-based or functional assay
[3] = target: T2, HMG2 coated on ELISA plates; assay: direct ELISA, HMGB2 coated at 5 ug/mL, antibody at 10 ug/mL, anti-human kappa/lambda-HRP, OD 490
Protocol: Binding to HMG1 vs. HMG2: Ultra high-binding ELISA plates (ThermoLab systems, #3855) were coated with either 5 ug/mL of Calf thymus HMGB1 or HMBG2 diluted in 10 mM Phosphate buffered saline (PBS), pH 7.2 and incubate overnight at 4 degrees. The plates were washed twice with Ca and Mg free PBS and 100 microliters of anti-HMGB1 antibody diluted in 10 mM PBS, pH 7.2+1% bovine serum albumin (BSA) to a final concentration of 10 ug/mL was added to each well and the plates were incubated 1 hour at room temperature. The wells were washed three times with 100 μl of PBS, pH 7.2. HRP labeled goat-anti-human IgG Kappa-chain (KPL, #14-10-10) and goat-anti-human IgG Lambda-chain (KPL, #14-10-11) were diluted in 10 mM PBS+1% BSA 1:1000 and 100 μl were added to each well and incubated for 1 hour at room temperature. The wells were then washed three times with 100 μl of PBS, pH 7.2. OPD substrate (Pierce chemical company, #34006) was prepared following the manufacturers instructions and 100 μl of prepared substrate was added to each well and the plates incubated at room temperature in the dark for 20-30 minutes. The reaction was stopped with the addition of 100 μl of 2M H₂SO₄, and the plates read on a plate reader at a wavelength of 490 nm.

[4] = target: T1, activated HMG1 from LPS stimulated …; assay: sandwich ELISA: antibody titrated and captured on anti-human IgG Fc, activated HMG1 in solution, mouse anti-HMGB1 detection, OD 450
Protocol: (§1) Sandwich ELISA (soluble HMG1): Immunoplates (EIA/RIA plate, High binding, Costar) were coated with anti human IgG Fc at 10 μg/ml in PBS (pH 7.2) and incubated at 4° C. overnight. The coating reagent was removed and the plates were rinsed briefly with PBS. The plates were then blocked with 4% milk for 1 hour at 37° C. and rinsed with PBS. The anti-HMG1 antibodies were diluted in 4% milk. For serial dilutions, the antibodies were used at a starting concentration of 20 μg/ml. The diluted anti-HMG1 antibodies were then added into plate and incubated for 1 hr at 37° C. The plate was then washed 10 times with PBST (PBS/0.1% tween 20) and incubate with antigen (HMGB1, 2 μg/ml; or 0.7 μg/ml for native HMGB1) in 4% milk and incubated at 37° C. for 1 h. The plate was then wash 10 times and incubated with mouse anti-HMGB1, 1 μg/ml in 4% milk at 37° C. for 1 h. The plate was washed 10 times and incubated with anti-mouse IgG-HRP at 1:1000 at 37° C. for 1 h. The plate was then washed and developed. HRP activity was detected with Sureblue HRP substrate (KPL). Plates were read at 450 nm using a Kinetic Microplate Reader (Molecular Devices).

[5] = target: T3, released HMG1 from conditioned medium …; assay: sandwich ELISA: antibody titrated and captured on anti-human IgG Fc, released HMG1 in solution, mouse anti-HMGB1 detection, OD 450
Protocol: as §1

[6] = target: T4, native nuclear HMG1 from freeze-thawed …; assay: sandwich ELISA: antibody titrated and captured on anti-human IgG Fc, native nuclear HMG1 at 0.7 ug/ml, mouse anti-HMGB1 and anti-mouse IgG-HRP, OD 450
Protocol: as §1

[7] = target: T5, recombinant HMG1 produced in E. coli as …; assay: sandwich ELISA, captured antibody and soluble HMG1, OD 450
Protocol: as §1

| Binder | percent inhibition of HMG1 binding to RAGE [1] [%] | IC50 nm IL-6 Native HMGB [2] [nM] | binding result [3] | binding result [4] | binding result [5] | binding result [6] | EC50 (read off the curve) [7] [µg/mL] |
| --- | --- | --- | --- | --- | --- | --- | --- |
| human anti-HMG1 antibody S6 (antibody, V domains shown, full length IgG1 made from a human Fab phage clone; two paragraphs print 'S4' for the PTA-6143 deposit; also called ATCC PTA-6143) VH: EVQLLESGGGLVQPGGSLRLSCAASGFTFSWYDMSWVRQAPGKGLEWVSRISPSGGYTMYADSVKGRFTISRDNSKNTLYLQMNSLRAEDTAVYYCARLEVGATSGGTAFDIWGQGTMVTVSS VL: not shown | ≥ 35 |  |  |  |  |  |  |
| human anti-HMG1 antibody S16 (antibody, IgG1, V domains shown, full length IgG1 made from a human Fab phage clone; also called ATCC PTA-6259) VH: EVQLLESGGGLVQPGGSLRLSCAASGFTFSWYSMLWVRQAPGKGLEWVSYISPSGGFTNYADSVKGRFTISRDNSKNTLYLQMNSLRAEDTAVYYCARWDYNSGWYYDHWGQGTLVTVSS VL: DIQMTQSPDTLSLSPGERATLSCRASQSVNSRNLAWYQQKPGQAPRLLIYGASTRATGIPDRFSGSVSGTEFTLTISSLQPDDFATYYCQQYNSYFTFGQGTKLEIK | ≥ 35 | 38.9 | binds |  |  |  |  |
| human anti-HMG1 antibody G4 (antibody, IgG1, V domains shown, full length IgG1 made from a human Fab phage clone; also called ATCC PTA-6258) VH: EVQLLESGGGLVQPGGSLRLSCAASGFTFSWYDMTWVRQAPGKGLEWVSSISPSGGYTKYADSVKGRFTISRDNSKNTLYLQMNSLRAEDTAVYYCTTEFYDYLDVWGKGTTVTVSS VL: DIQMTQSPGTLSLSPGEGATLSCRASQSVSSTYLAWYQQKPGQAPRLLIYEASKRATGTPARFSGSGSGTDFTLSISSLEPEDFAVYYCQHRHNWPPQWTFGQGTKVEVK |  |  |  | binds | binds | binds |  |
| human anti-HMG1 antibody E11 (antibody, IgG1, V domains shown, full length IgG1 made from a human Fab phage clone) VH: EVQLLESGGGLVQPGGSLRLSCAASGFTFSRYQMNWVRQAPGKGLEWVSSISPSGGHTHYADSVKGRFTISRDNSKNTLYLQMNSLRAEDTAVYYCAKDGRQGKISTVDHWGQGTLVTVSS VL: DIQMTQSPGTLSLSPGERATLSCRASQSVRSNFLAWYQQKPGQAPRLLIYGASRRASGIPDRFSGSGFGADFTLSISRLEPEDFAVYYCQQYGSSPNTFGQGSRVEIK |  | 1.73 | binds |  |  |  | ~0.4 |
